These results are taken from the DeepSol protein solubility set.

A short description of the series: soluble on expression in E. coli; label from the status in PepcDB or PDB records.
As to “MVLIDTEYVRAVVHNVGHRARCGVASKVRALKLAHSQARLRSYSQACERASYIDGRCEYYPSLDVASSSRNSEMLNSGFFDGYSWNTPNIQSQSSSDVTAKTELRRLMTETSEDPIHKEDSETLRRLIMWQEFRDAGVDVNTTQPGYGYGIEAKVEPFPQKLQNYESIHLETRRSSCPSFGTQLYNEPIYEGDEDPLGLGITPPVVTKTSGSLSNNGLDGINLNWKSIPAPVHQMQQHNANGDFVAAWPQNTIEKPTVGPLDKLQKQFEDIKLISISSGENTPTTRSKADEWLDDVLRVSMSMSPTSPSSDPPSTSSYSVLPKSGPPPAHAPPPLPVRQAVSNGSPSIYQQQLQQANSTRNSPAGINWNSSPNPMKISQPPAKPVDPFDVQWSRLAVNNTH”, the “soluble on expression in E. coli” value is on record as “not soluble”.
For the sequence “MIKVEIKPSQAQFTTRSGVSRQGKPYSLNEQLCYIDLGNEYPVLVKVTLDEGQPAYAPGLYTVHLSSFKVGQFGSLMIDRLRLVPAK”, the “soluble on expression in E. coli” value is given as “soluble”.
The value for “MEKHLLISKGCKGWGGPLTITPGQGKKIAYITGGIRPPVVDRLSELTGWPSIDVFKNGEPPAEEIGLMVIDCGGTLRCGLYPKRGIPTINLHPTGKSGPLAEFIHEGIYVSGVTPACIEMVWPQGEGGKLGIVADDLTGATTVGVLLARSGLKTAAFFDTESFARNEVEYPAMVVSSDSRPLPKAEAQHKVSAAVKQLQARGAHYFTKRIDTTLRGGIGFEIDAMLEQLPQETVAVVVPAMPQSRRILVGGYSVIDSVALSRTDVARDVRTPVTESWVPGLLAAQTHHQVGHIALTSVMKGEGQIQQDLQEQQQRGVRVIVVDAITVDDVDAIAGAVVALNWNVLTVDPGPFTERLAVRRGLMREARSSAPASLTADGQRGSILIVAGSATPVTKKQLQYLIANDARVCHIPVDAELLVDRKNAAEIEVNRVVQHARQCVPAQHNALFVFESALTGRLLNLQEEEQRFGLAHGEAAQNINHGLGSIVREVLNCASGEIKGLYMTGGDTMVNVLKELGATGIEMIDYVIPQTDMVRIIGGDYAGLICVGKGGLTGPEDIISIIVDRIYQEAQ” was “not soluble”.
The value for “MNPFIVADAESCIGCRSCEVACVVAHHEGQFPDKPEYFTPRVKVFKGDQCATAVFCHHCEDAPCASTCPNGAIVELNNRVQVIQEKCIGCKTCMIACPFGMMTVVTETVQPASHRLADVYRRTEAQKCDLCLDQPDGPACIKTCPTQALTLVDQQYLLHQQQQKRQHMALNEHNGRLFSRAVVQAASASSNKSIRDATPVNLLQRPRAPRLEPKKIPLAERKTGFAEIYLPFTESQIHEQAERCLECGDKTICQWTCPLHNAIPKWISLAHQGRIHEAAELSHQTSSLPEVCGRVCPQDRLCEQSCTLNDHDGAVTIGQIERHITETALATGWRPDLSQVKPSGKRVAIIGAGPAGLGCADILVRNGITPVVFDRYPEIGGLLTFGIPAFKLEKSVMTRRREIFTEMGVEFCLNTEIGRDITMENLLHDFDALFLGVGTYRSMRSGLENEDAQGVYDALPFLIGNTQHLMGYTANGAHPYVSMQDQRVVVLGGGDTAMDCVRTSLRQGASRVVCAYRRDEKNMPGSKREVKNAREEGAEFMFNLQPMSIVVDESGQVTGIKMVRTEMGQADAQGRRQALPITGSEHLIPADAVIMAFGFSPHRMSWLAEHNVVLDKHGRVVAPTISGYPYQTSNPKIFAGGDIVRGADLIVTAIAEGRKAAESIAYYLNVL” was “not soluble”; that for “MSLKLGIIGSGKIVHDFLTAIDQINNLDVVAISSTKRSENIAQELAKKYSINKTYTDNDELMSDPDVDTVYVAVPNFLHYQVAKAALEHGKNVICEKPFVDSTNEAKKLKQLADEKNLIIVEAITNIYLENFKRIQREIENIAPIHIVSLNYTQYSSRYDDFLKGKIAPVFDPAKDGGTLMDLNIYNIHLVSALFGLPDKVKYYANMQKGVDTSGILHLSYPDKQAALIAAKDSYVTPRSFIEGEKGSIYIDGSTGELNNFTIEMRDQKPKRYNLNKYSHRMASEFNAFVEMIDNHDKVKADEAFVNTLESMQILTTAKNSEEGHHHHHH” was “soluble”.
With “GMSTAAESEIRQLIERWMQAVRDRDIPGIIAPYADDIVAFDAIQALQFKGKSAYTAHWEMCMGMCTGPMVFELAQLTVHAAGDLALAHWLNRCGPGDDESQCGFMRATVGYRRQGGQWQVIHEHWSAPFDMETQKALFDLKP”, the “soluble on expression in E. coli” value is given as “soluble”.
Consider “ETELEQKAIDYDELERLNSTIVSNLNSGLITVTGDGRIRVFNRYAEALTGIGLAEAYDCHLFDVLPGFRVYADVLANVKRGEFEFIAKMGRKLTIGFSSVPLMLKDSDAAGILLNFQDVT”, for which the “soluble on expression in E. coli” value is given as “not soluble”.
The value for “MAHHHHHHMTALITKQRYNWMGYDGVESAVCDTALLRSDGGPANNYNYMHRQQVIMEVKERLYRIKRDLGLIPEEELRAEERAIQRRRMEKKRREEEERIRKEAEEAARAEEMERRHLELEEAEERASAEEVATQASAEHKHYMNDSDEDSDEENGIDDEQSASLVAMLRTQEEIDSAIAGFTKGTRMLLASSGNGYVSYLDGSVHFTIAKVESHNASNREKVMQALAGTNVAMPTAEEYSLEEVRQAMHDRDTARKKLDALRALQDPTYTARIRSAEKDTYGTPVQQLMEEDGDMSALVANCEDAKRFAESVRKAYNSRAAASAHALACALCTPPFTAEQESTSEAQAPAGKMANAEDGVSQPTGANSPSSSTSAQ” was “not soluble”; that for “SVELSAGQSIIADAAGALGPVNRDDAPAATWREGRVSFSGTPLMQALAEFERYGDTGLVIRDPAVAALKVNGSFDLRQIGAFARALPRVLPVQLSTRDGQTEII” was “not soluble”; that for “MFLVDSHCHLDGLDYQSLHKDVDDVLAKAAARDVKFCLAVATTLPGYRHMRKLVGKRDNVVFSCGVHPLNQDEAYDVEELRLLAAEDDVVAMGETGLDYFYTPETKIRQQASFIHHIQIGRELHKPVIVHTRDARADTLAILREEKVTDCGGVLHCFTEDRETAGKLLDLGFYISFSGIVTFRNAEQLRDAARYVPLDRLLVETDSPYLAPVPHRGKENQPAMVRDVAEYMAVLKGVAVEELAQITTDNFARLFHIDASRLSSIR” was “not soluble”.
The result for “MSLVLDKLLYTGYNRLIDLGWRRSGHYLYKPNGKTSCCSLYTIRLDSYNFKIAKEQKKAIKKWVKYVNGKPLKPMKSEISTDYLNNAFQTIESLGAEKYSVTMEPCTYTDEKFEVFKKYQMQVHLEKEEEITKKGFSRFLCNSPLFNEDKGIKYGSYHQMYRFQGRLVAVGVLDLLPHGVSSVYLFYDPDMSKFSLGRISACREIWLALECGYRYYYMGYYIHTCPKMKYKATYSPSYLLNPGTNKWIPIENFTSLWNTGAPKYISFGDENNSDIQTAVDYDSSEDSSQNEDDYTLFNRQLPGILSVNVAESLVSENFANIGNSTFPTRHVLSYFPQVKHWFVEINAAVGEEVAKSYTLVLSSEGHHHHHH” reads “not soluble”; that for “MEITDVRIRKIDSEGKMKAVVSVTFDNEFVVHDIKVIESQNGLFIAMPSRKAPDGEFRDIAHPINAETRSKIQTAILDKYESICAGSTETEGNN”, “soluble”.
The value for “GSHMSHDGKEEPGIAKKINSVDDIIIKCQCWVQKNDEERLAEILSINTRKAPPKFYVHYVNYNKRLDEWITTDRINLDKEVLYPKLKATDED” was “soluble”; that for “MGHHHHHHSHMEKCSVGGLELTEQTPALLGNMAMATSLMDIGDSFGHPACPLVSRSRNSPVEDDDDDDDVVFIESIQPPSISAPAIADQRNFIFASSKNEKPQGNYSVIPPSSRDLASQKGNISETIVIDDEEDVETNGGAEKKSSFFIEWGLPGTKNKTNDLDFSTSSLSRSKTKTGVRPFNPGRMNVAGDLFQNGEFATHHSPEMHLQRRLMSFFQ” was “not soluble”; that for “AHHHHHHGSLEVQGISKKWKDFHLKDISFSVMDGEYFIVLGPSGAGKTVLLEIIAGIIPPDGGKVLLDGKDITLLPPEKRGIAYVPQNYALFPNMSVFDNIAFGLKVRRVPRSEIEKRVLEISEVLGIRHLLHRKPRTLSGGEQQRVAVARALVIEPEIILLDEPFANLDVQIRSRLINEMKRWRRELGFTAIHVTHSFEEALALGDRVGIMLNGKLVQVGEIREVFSRPNSEEVAKFLGFENIIEGIADGRVLHVGKLRIELPLEAKGRVRIGIRPEDILISTERIKTSARNVFKAKVEAIEDVGPLVKLTLNVCDITLRAFITRSSLVELGIEEGKEVYASFKASAIHVF” was “soluble”.
Consider “MSLPIDEHVNAVKTVVVPAAGLGTRFLPATKTVPKELLPVVDTPGIELIAAEAAELGATRLAIITAPNKAGVLAHFERSSELEETLMERGKTDQVEIIRRAADLIKAVPVTQDKPLGLGHAVGLAESVLDDDEDVVAVMLPDDLVLPTGVMERMAQVRAEFGGSVLCAVEVSEADVSKYGIFEIEADTKDSDVKKVKGMVEKPAIEDAPSRLAATGRYLLDRKIFDALRRITPGAGGELQLTDAIDLLIDEGHPVHIVIHQGKRHDLGNPGGYIPACVDFGLSHPVYGAQLKDAIKQILAEHEAAERIADDSQVKLEHHHHHH”, for which the “soluble on expression in E. coli” value is given as “soluble”.
As to “MKSPSAGAPDRHASSRSVPDRWNMHKPMLCDSLPTASRTAAAILNLAQREDVTAEALAQLIQTDPALTGRILRFANAPAQGTRRPVASVIDAIDLVGLPAVRQFALSLSLIDAHREGRCEAFDYAAYWQKSLARAVALQSITAQASTVAPKEAFTLGLLADVGRLALATAWPEEYSECLRKADGEALIALERERFATDHDELTRMLLTDWGFPQVFIDALQLSQQDEIRDEGRTGRFARQLALAQHIADHRLAEEPRRAALSPLLRAEARRCGLGDEDLARLLADPPADWLDWTRTIGLPGDAPTGGAEPSRPPPQTDEKLHVLLADDDPIMLARLSRQLEADGHHVASRRDGETALAYALEHQPEMVITDWHMKPMNGLELCRALRESALGGNVYIVMLTASESEDALVEAFGAGIDDYVIKPPSVRVLKARIRAGQRIITLHKKLARERKEIERYSSELAAANRRLELMAHTDQLTGLPNRRYAMDRLEREWAQARTFDRPLSIMMLDLDWFKSINDSLGHDAGDQALVHAARVMRETVRTSDVVCRMGGEEFLIIIPDTAGPAAIQTAERVRSAVEQQQPAKLKLSRPLTASIGVADSTSAPSLKDLLLKADNALYQVKQNGRNGVRYAGLAAALEHHHHHH”, the “soluble on expression in E. coli” value is recorded as “not soluble”.
On to “MHSQVFSAFPHSLPLRSWVNVIKNPQFVFDIHKGSITDACLSVVAQTFMDSCSTSEHRLGKDSPSNKLLYAKDIPSYKSWVERYYADIAKLPAISDQDMNAYLAEQSRLHAVEFNMLSALNEIYSYVSKYSEELIGALEQDEQARRQRLAYKVEQLINAMSIESLEHHHHHH”, for which the “soluble on expression in E. coli” value is “not soluble”.
Turning to “MRMRLMLLGGGNALGQALIRLGAEEDIGFLAPRPPEQGWDAASLTTLLDETRPDAVINLAFYHDWFQAEQVEAERLGAQERAVERLAELCQHYEILLVQPSSYRVFDGARATAYSEKDETLPLGLRGQALWRMEQSVRAACPRHVLIRFGWLLDESPNGLLGRFLSRAEQPQPLFLADDRRGNPTPVDDAARVVLSVLKQLDCQAPLWGTYHYGGLEATTTLALGQVILNEARTYRSNLIQEPSAEAHAARPDALDEPQHAVMVCKKILHTFGIKPRAWRAGLPALLDRYYRHV”, the “soluble on expression in E. coli” value was “not soluble”.
The result for “MGSDKIHHHHHHMLSRTAENLFWLARYVERAEYLARTIEATLRVTALPSAYIGKTNEWDSALLTAGVGGNFYNFHDEANEQSVVDYLAFSSDNPSSIRNCIENARLNARSVRTALTGEMWDTLNSAWIELQEAWGKGTKTREDLTRFLRFVQEISLRFDGSAYRTMLRNDAYWFSRLGLHLERADNTARILDVKYHVLLPEEEHVGGPLDYYQWSSILRSVSALTAYHWVYRETLKPWLIADLLILNDTLPRSLASCYGNLTRNLDNIGVAYGRHGAAQRHARGVRNRLEHSKMDDIFQRGVHEFIQEFIADNARLGEVIAKQYLI” reads “not soluble”.
